Assay results published in patent publication US20260274985A1 (MYTHIC THERAPEUTICS, published 2026).

T1: Human TROP2 Protein, His Tag (human, UniProt P09758 27-274)
T1 construct: Bought protein; also called TACSTD2; not shown: His tag
T1 sequence (looked up): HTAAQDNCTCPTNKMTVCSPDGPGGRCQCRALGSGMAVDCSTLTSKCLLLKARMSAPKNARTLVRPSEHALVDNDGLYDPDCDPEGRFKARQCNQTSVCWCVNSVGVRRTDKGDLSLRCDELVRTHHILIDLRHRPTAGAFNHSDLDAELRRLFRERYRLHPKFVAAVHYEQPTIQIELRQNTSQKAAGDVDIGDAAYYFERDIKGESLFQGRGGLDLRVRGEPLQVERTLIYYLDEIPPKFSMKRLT

T2: Human TROP2 Protein, His Tag (Acro Biosystems) (human, UniProt P09758 27-274)
T2 construct: not shown: His tag
T2 sequence (looked up): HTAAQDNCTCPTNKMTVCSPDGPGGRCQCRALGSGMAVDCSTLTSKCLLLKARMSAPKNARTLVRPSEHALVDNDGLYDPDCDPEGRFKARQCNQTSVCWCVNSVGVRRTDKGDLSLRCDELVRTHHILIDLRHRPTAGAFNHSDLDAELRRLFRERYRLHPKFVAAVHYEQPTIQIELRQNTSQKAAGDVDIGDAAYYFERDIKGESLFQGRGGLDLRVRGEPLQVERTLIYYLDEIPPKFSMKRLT

T3: TROP2 on TROP2-positive NCI-H1975 cells (human, UniProt P09758 27-323)
T3 sequence: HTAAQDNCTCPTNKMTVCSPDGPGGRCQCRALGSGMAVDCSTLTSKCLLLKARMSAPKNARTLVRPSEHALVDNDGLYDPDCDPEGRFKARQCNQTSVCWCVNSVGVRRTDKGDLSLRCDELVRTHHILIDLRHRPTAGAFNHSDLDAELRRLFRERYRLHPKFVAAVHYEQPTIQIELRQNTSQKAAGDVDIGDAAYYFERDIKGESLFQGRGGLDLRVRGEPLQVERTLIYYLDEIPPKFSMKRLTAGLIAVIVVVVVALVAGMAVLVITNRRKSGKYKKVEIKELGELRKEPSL

T4: Human TROP2 Protein, His Tag (Acro Biosystems) (human, UniProt P09758 27-274)
T4 construct: Bought protein; also called TACSTD2; not shown: His tag
T4 sequence: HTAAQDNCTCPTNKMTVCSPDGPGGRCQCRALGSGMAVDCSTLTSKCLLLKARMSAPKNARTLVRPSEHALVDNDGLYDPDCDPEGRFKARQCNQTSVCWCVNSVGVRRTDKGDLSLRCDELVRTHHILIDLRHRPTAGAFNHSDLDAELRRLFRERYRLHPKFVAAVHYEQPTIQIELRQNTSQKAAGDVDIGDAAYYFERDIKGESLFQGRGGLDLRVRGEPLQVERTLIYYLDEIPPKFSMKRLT

B1: MYT11663 (antibody, V domains shown)
VH: QVQLVQSGAEVKKPGASVKVSCKASGYTFTTAGMQWVRQAPGQGLEWMGWINTHSGVPKYAEDFKGRVTISADTSTSTAYLQLSSLKSEDTAVYYCHRSGFGSSYWYFDVWGQGTLVTVSS
VL: DIQMTQSPSSLSASVGDRVTITCKASQDVSTAVAWYQQKPGKAPKLLIYSASYRYTGVPSRFSGSGSGTDFTLTISSLQPEDFAVYYCQQHYITPLTFGQGTKLEIK
notes: IgG from supernatant; His at HCV position 97; also called datopotamab variant H3 01
B2: MYT11666 (antibody, V domains shown)
VH: QVQLVQSGAEVKKPGASVKVSCKASGYTFTTAGMQWVRQAPGQGLEWMGWINTHSGVPKYAEDFKGRVTISADTSTSTAYLQLSSLKSEDTAVYYCARSHFGSSYWYFDVWGQGTLVTVSS
VL: DIQMTQSPSSLSASVGDRVTITCKASQDVSTAVAWYQQKPGKAPKLLIYSASYRYTGVPSRFSGSGSGTDFTLTISSLQPEDFAVYYCQQHYITPLTFGQGTKLEIK
notes: IgG from supernatant; His at HCV position 100; also called datopotamab variant H3 04
B3: MYT11665 (antibody, V domains shown)
VH: QVQLVQSGAEVKKPGASVKVSCKASGYTFTTAGMQWVRQAPGQGLEWMGWINTHSGVPKYAEDFKGRVTISADTSTSTAYLQLSSLKSEDTAVYYCARHGFGSSYWYFDVWGQGTLVTVSS
VL: DIQMTQSPSSLSASVGDRVTITCKASQDVSTAVAWYQQKPGKAPKLLIYSASYRYTGVPSRFSGSGSGTDFTLTISSLQPEDFAVYYCQQHYITPLTFGQGTKLEIK
notes: IgG from supernatant; His at HCV position 99; also called datopotamab variant H3 03
B4: MYT11643 (antibody, V domains shown)
VH: QVQLVQSGAEVKKPGASVKVSCKASGYTFTTAHMQWVRQAPGQGLEWMGWINTHSGVPKYAEDFKGRVTISADTSTSTAYLQLSSLKSEDTAVYYCARSGFGSSYWYFDVWGQGTLVTVSS
VL: DIQMTQSPSSLSASVGDRVTITCKASQDVSTAVAWYQQKPGKAPKLLIYSASYRYTGVPSRFSGSGSGTDFTLTISSLQPEDFAVYYCQQHYITPLTFGQGTKLEIK
notes: IgG from supernatant; His at HCV position 33; also called datopotamab variant H1 08
B5: MYT11672 (antibody, V domains shown)
VH: QVQLVQSGAEVKKPGASVKVSCKASGYTFTTAGMQWVRQAPGQGLEWMGWINTHSGVPKYAEDFKGRVTISADTSTSTAYLQLSSLKSEDTAVYYCARSGFGSSYHYFDVWGQGTLVTVSS
VL: DIQMTQSPSSLSASVGDRVTITCKASQDVSTAVAWYQQKPGKAPKLLIYSASYRYTGVPSRFSGSGSGTDFTLTISSLQPEDFAVYYCQQHYITPLTFGQGTKLEIK
notes: IgG from supernatant; also called datopotamab variant H3 10
B6: MYT11668 (antibody, V domains shown)
VH: QVQLVQSGAEVKKPGASVKVSCKASGYTFTTAGMQWVRQAPGQGLEWMGWINTHSGVPKYAEDFKGRVTISADTSTSTAYLQLSSLKSEDTAVYYCARSGFHSSYWYFDVWGQGTLVTVSS
VL: DIQMTQSPSSLSASVGDRVTITCKASQDVSTAVAWYQQKPGKAPKLLIYSASYRYTGVPSRFSGSGSGTDFTLTISSLQPEDFAVYYCQQHYITPLTFGQGTKLEIK
notes: IgG from supernatant; also called datopotamab variant H3 06
B7: MYT11669 (antibody, V domains shown)
VH: QVQLVQSGAEVKKPGASVKVSCKASGYTFTTAGMQWVRQAPGQGLEWMGWINTHSGVPKYAEDFKGRVTISADTSTSTAYLQLSSLKSEDTAVYYCARSGFGHSYWYFDVWGQGTLVTVSS
VL: DIQMTQSPSSLSASVGDRVTITCKASQDVSTAVAWYQQKPGKAPKLLIYSASYRYTGVPSRFSGSGSGTDFTLTISSLQPEDFAVYYCQQHYITPLTFGQGTKLEIK
notes: IgG from supernatant; also called datopotamab variant H3 07
B8: MYT12377 (antibody, V domains shown)
VH: QVQLQQSGSELKKPGASVKVSCKASGYTFTNYGMNWVKQAPGQGLKWMGWINTYTGEPTYTDDFKGRFAFSLDTSVSTAYLQISSLKADDTAVYFCARGGFGSSYWYFDVWGQGSLVTVSS
VL: DIQLTQSPSSLSASVGDRVSITCKASQDVSIAVAWYQQKPGKAPKLLIYSASHRYTGVPDRFSGSGSGTDFTLTISSLQPEDFAVYYCHQHYHTPLTFGAGTKVEIK
notes: sacituzumab VL 53, 89, 93 -> H
B9: MYT11766 (antibody, human IgG1, V domains shown)
VH: QVQLQESGPGLVKPSETLSLTCTVSGGSISSYGVHWIRQPPGKGLEWIGVIWTSGVTDYNSALMGRVTISVDTSKNQFSLKLSSVTAADTAVYYCARDGDYDRYTMDYWGQGTLVTVSS
VL: DIVMTQSPDSLAVSLGERATINCRASKSVSTSGYSYMHWYQQKPGQPPKLLIYLASNLESGVPDRFSGSGSGTDFTLTISSLQAEDVAVYYCHHSRELPYTFGQGTKLEIK
B10: MYT12375 (antibody, human IgG1, V domains shown)
VH: QVQLQQSGSELKKPGASVKVSCKASGYTFTNYGMNWVKQAPGQGLKWMGWINTYTGEPTYTDDFKGRFAFSLDTSVSTAYLQISSLKADDTAVYFCARGGFGSSYWYFDVWGQGSLVTVSS
VL: DIQLTQSPSSLSASVGDRVSITCKASQDVSIAVAWYQQKPGKAPKLLIYSHSHRYTGVPDRFSGSGSGTDFTLTISSLQPEDFAVYYCQQHYHTPLTFGAGTKVEIK
B11: MYT11682 (antibody, human IgG1, V domains shown)
VH: QVQLVQSGAEVKKPGASVKVSCKASGYTFTTAGMQWVRQAPGQGLEWMGWINTHSGVPKYAEDFKGRVTISADTSTSTAYLQLSSLKSEDTAVYYCARSGFGSSYWYFDVWGQGTLVTVSS
VL: DIQMTQSPSSLSASVGDRVTITCKASQDHSTAVAWYQQKPGKAPKLLIYSASYRYTGVPSRFSGSGSGTDFTLTISSLQPEDFAVYYCQQHYITPLTFGQGTKLEIK
B12: MYT12425 (hu7E6SVG variant, HCV substitutions at 56, 106) (antibody, V domains shown)
VH: QVQLQESGPGLVKPSETLSLTCTVSGGSISSYGVHWIRQPPGKGLEWIGVIWTSGHTDYNSALMGRVTISVDTSKNQFSLKLSSVTAADTAVYYCARDGDYDRYTHDYWGQGTLVTVSS
VL: DIVMTQSPDSLAVSLGERATINCRASKSVSTSGYSYMHWYQQKPGQPPKLLIYLASNLESGVPDRFSGSGSGTDFTLTISSLQAEDVAVYYCQHSRELPYTFGQGTKLEIK
B13: MYT12416 (hu7E6SVG variant, HCV substitutions at 34, 102) (antibody, V domains shown)
VH: QVQLQESGPGLVKPSETLSLTCTVSGGSISSYGHHWIRQPPGKGLEWIGVIWTSGVTDYNSALMGRVTISVDTSKNQFSLKLSSVTAADTAVYYCARDGDYHRYTMDYWGQGTLVTVSS
VL: DIVMTQSPDSLAVSLGERATINCRASKSVSTSGYSYMHWYQQKPGQPPKLLIYLASNLESGVPDRFSGSGSGTDFTLTISSLQAEDVAVYYCQHSRELPYTFGQGTKLEIK
B14: MYT12412 (hu7E6SVG variant, HCV substitutions at 33, 103) (antibody, V domains shown)
VH: QVQLQESGPGLVKPSETLSLTCTVSGGSISSYHVHWIRQPPGKGLEWIGVIWTSGVTDYNSALMGRVTISVDTSKNQFSLKLSSVTAADTAVYYCARDGDYDHYTMDYWGQGTLVTVSS
VL: DIVMTQSPDSLAVSLGERATINCRASKSVSTSGYSYMHWYQQKPGQPPKLLIYLASNLESGVPDRFSGSGSGTDFTLTISSLQAEDVAVYYCQHSRELPYTFGQGTKLEIK
B15: MYT12421 (hu7E6SVG variant, HCV substitutions at 51, 103) (antibody, V domains shown)
VH: QVQLQESGPGLVKPSETLSLTCTVSGGSISSYGVHWIRQPPGKGLEWIGVHWTSGVTDYNSALMGRVTISVDTSKNQFSLKLSSVTAADTAVYYCARDGDYDHYTMDYWGQGTLVTVSS
VL: DIVMTQSPDSLAVSLGERATINCRASKSVSTSGYSYMHWYQQKPGQPPKLLIYLASNLESGVPDRFSGSGSGTDFTLTISSLQAEDVAVYYCQHSRELPYTFGQGTKLEIK
B16: MYT12420 (hu7E6SVG variant, HCV substitutions at 51, 102) (antibody, V domains shown)
VH: QVQLQESGPGLVKPSETLSLTCTVSGGSISSYGVHWIRQPPGKGLEWIGVHWTSGVTDYNSALMGRVTISVDTSKNQFSLKLSSVTAADTAVYYCARDGDYHRYTMDYWGQGTLVTVSS
VL: DIVMTQSPDSLAVSLGERATINCRASKSVSTSGYSYMHWYQQKPGQPPKLLIYLASNLESGVPDRFSGSGSGTDFTLTISSLQAEDVAVYYCQHSRELPYTFGQGTKLEIK
B17: MYT12417 (hu7E6SVG variant, HCV substitutions at 34, 103) (antibody, V domains shown)
VH: QVQLQESGPGLVKPSETLSLTCTVSGGSISSYGHHWIRQPPGKGLEWIGVIWTSGVTDYNSALMGRVTISVDTSKNQFSLKLSSVTAADTAVYYCARDGDYDHYTMDYWGQGTLVTVSS
VL: DIVMTQSPDSLAVSLGERATINCRASKSVSTSGYSYMHWYQQKPGQPPKLLIYLASNLESGVPDRFSGSGSGTDFTLTISSLQAEDVAVYYCQHSRELPYTFGQGTKLEIK
B18: MYT12424 (hu7E6SVG variant, HCV substitutions at 56, 103) (antibody, V domains shown)
VH: QVQLQESGPGLVKPSETLSLTCTVSGGSISSYGVHWIRQPPGKGLEWIGVIWTSGHTDYNSALMGRVTISVDTSKNQFSLKLSSVTAADTAVYYCARDGDYDHYTMDYWGQGTLVTVSS
VL: DIVMTQSPDSLAVSLGERATINCRASKSVSTSGYSYMHWYQQKPGQPPKLLIYLASNLESGVPDRFSGSGSGTDFTLTISSLQAEDVAVYYCQHSRELPYTFGQGTKLEIK

Biological target: T1, Human TROP2 Protein, His Tag
Assay: BLI (Octet)

Does B1 bind?
Result: no binding (tested: 50 nM)

Does B2 bind?
Result: no binding (tested: 50 nM)

Does B3 bind?
Result: no binding (tested: 50 nM)

Does B4 bind?
Result: no binding (tested: 50 nM)

Does B5 bind?
Result: no binding (tested: 50 nM)

Does B6 bind?
Result: no binding (tested: 50 nM)

Does B7 bind?
Result: no binding (tested: 50 nM)

Biological target: T2, Human TROP2 Protein, His Tag (Acro …)
Assay: BLI (Octet) [2/2]

Does B8 bind?
Result: binds

Biological target: T3, TROP2 on TROP2-positive NCI-H1975 cells
Assay: cell-based or functional assay

B9 was tested. Which “cytotoxicity on TROP2-positive NCI-H1975 cells (antibody complexed to secondary antibody-MMAF, cell titer glow assay)” value (shortened to “cytotoxicity”) did it give?
The value was ~30 % greater cytotoxicity compared to WT datopotamab.

How did the “cytotoxicity” value turn out when B10 was run?
Its value is ~27 % greater cytotoxicity compared to WT datopotamab.

For B11, which “cytotoxicity” value is on record?
Its value is ~20 % greater cytotoxicity compared to WT datopotamab.

Biological target: T4, Human TROP2 Protein, His Tag (Acro …)
Assay: BLI (Octet)

Does B12 bind?
Result: binds

Does B13 bind?
Result: binds

Does B14 bind?
Result: binds

Does B15 bind?
Result: binds

Does B16 bind?
Result: binds

Does B17 bind?
Result: binds

Does B18 bind?
Result: binds
